Patent US8840891 (RSR, dated 2014)
Read-outs that look alike come from different tables or passages of the source.

Legend:
[1] = biological target: TSHR with Arg255 mutated to Alanine (human) (UniProt P16473); assay: cell-based or functional assay
[2] = biological target: wild type human TSHR (human) (UniProt P16473); assay: cell-based or functional assay
[3] = biological target: TSHR coated onto tubes (human) (UniProt P16473); assay: TSHR coated tubes, competitor 125I-5C9 IgG
[4] = biological target: wild type human TSHR (human) (UniProt P16473); assay: cell-based or functional assay; remark: listed apart in the source
[5] = biological target: TSHR with Ser281 mutated to Alanine (human) (UniProt P16473); assay: cell-based or functional assay
[6] = biological target: wild type human TSHR (human) (UniProt P16473); assay: cell-based or functional assay; remark: listed apart in the source
[7] = biological target: TSHR with Arg80 mutated to Aspartic acid (human) (UniProt P16473); assay: cell-based or functional assay

Chain of 5C9 IgG (antibody) (VH): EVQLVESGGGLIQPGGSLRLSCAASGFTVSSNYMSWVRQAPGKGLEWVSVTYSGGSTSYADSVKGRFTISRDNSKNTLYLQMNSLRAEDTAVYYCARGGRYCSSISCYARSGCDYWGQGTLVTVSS
Chain of 5C9 IgG (antibody) (VL): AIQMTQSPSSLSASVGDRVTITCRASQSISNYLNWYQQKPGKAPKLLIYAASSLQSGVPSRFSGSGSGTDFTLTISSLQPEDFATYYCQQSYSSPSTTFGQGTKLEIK

## 5C9 IgG (antibody)
[1]
  Mutated/wild type (%); 5C9 0.01 µg/mL + TSH: 123%
  Mutated/wild type (%); 5C9 0.1 µg/mL + TSH: 109%
  Mutated/wild type (%); 5C9 1.0 µg/mL + TSH: 201%
  Mutated/wild type (%); 5C9 10 µg/mL + TSH: 80%
  Mutated/wild type (%); 5C9 100 µg/mL + TSH: 80%
  Mutated/wild type (%); 5C9 100 µg/mL only: 775%
  cyclic AMP; 5C9 0.01 µg/mL + TSH (fmol/cell well): 8120
  cyclic AMP; 5C9 0.1 µg/mL + TSH (fmol/cell well): 4140
  cyclic AMP; 5C9 1.0 µg/mL + TSH (fmol/cell well): 1940
  cyclic AMP; 5C9 10 µg/mL + TSH (fmol/cell well): 692
  cyclic AMP; 5C9 100 µg/mL + TSH (fmol/cell well): 809
  cyclic AMP; 5C9 100 µg/mL only (fmol/cell well): 248
[2]
  cyclic AMP; 5C9 0.01 µg/mL + TSH (fmol/cell well): 6620
  cyclic AMP; 5C9 0.1 µg/mL + TSH (fmol/cell well): 3790
  cyclic AMP; 5C9 1.0 µg/mL + TSH (fmol/cell well): 966
  cyclic AMP; 5C9 10 µg/mL + TSH (fmol/cell well): 867
  cyclic AMP; 5C9 100 µg/mL + TSH (fmol/cell well): 1010
  cyclic AMP; 5C9 100 µg/mL only (fmol/cell well): 32
[3]
  % inhib of 125I-5C9 IgG binding at 0.01 µg/mL: 0%
  % inhib of 125I-5C9 IgG binding at 0.1 µg/mL: 10%
  % inhib of 125I-5C9 IgG binding at 1 µg/mL: 27%
  % inhib of 125I-5C9 IgG binding at 10 µg/mL: 42%
  % inhib of 125I-5C9 IgG binding at 100 µg/mL: 65.5%
[4]
  cyclic AMP; 5C9 0.01 µg/mL + TSH (fmol/cell well): 13800
  cyclic AMP; 5C9 0.1 µg/mL + TSH (fmol/cell well): 9070
  cyclic AMP; 5C9 1.0 µg/mL + TSH (fmol/cell well): 3730
  cyclic AMP; 5C9 10 µg/mL + TSH (fmol/cell well): 802
  cyclic AMP; 5C9 100 µg only (fmol/cell well): 201
  cyclic AMP; 5C9 100 µg/mL + TSH (fmol/cell well): 1080
[5]
  Mutated/wild type (%); 5C9 0.01 µg/mL + TSH: 210%
  Mutated/wild type (%); 5C9 0.1 µg/mL + TSH: 172%
  Mutated/wild type (%); 5C9 1.0 µg/mL + TSH: 95%
  Mutated/wild type (%); 5C9 10 µg/mL + TSH: 193%
  Mutated/wild type (%); 5C9 100 µg only: 391%
  Mutated/wild type (%); 5C9 100 µg/mL + TSH: 149%
  cyclic AMP; 5C9 0.01 µg/mL + TSH (fmol/cell well): 29000
  cyclic AMP; 5C9 0.1 µg/mL + TSH (fmol/cell well): 15600
  cyclic AMP; 5C9 1.0 µg/mL + TSH (fmol/cell well): 3550
  cyclic AMP; 5C9 10 µg/mL + TSH (fmol/cell well): 1550
  cyclic AMP; 5C9 100 µg only (fmol/cell well): 785
  cyclic AMP; 5C9 100 µg/mL + TSH (fmol/cell well): 1600
[6]
  cyclic AMP; 5C9 0.01 µg/mL + TSH (fmol/cell well): 13100
  cyclic AMP; 5C9 0.1 µg/mL + TSH (fmol/cell well): 6330
  cyclic AMP; 5C9 1.0 µg/mL + TSH (fmol/cell well): 2640
  cyclic AMP; 5C9 10 µg/mL + TSH (fmol/cell well): 1910
  cyclic AMP; 5C9 100 µg/mL + TSH (fmol/cell well): 1610
  cyclic AMP; 5C9 100 µg/mL only (fmol/cell well): 300
[7]
  Mutated/wild type (%); 5C9 0.01 µg/mL + TSH: 161%
  Mutated/wild type (%); 5C9 0.1 µg/mL + TSH: 70%
  Mutated/wild type (%); 5C9 1.0 µg/mL + TSH: 73%
  Mutated/wild type (%); 5C9 10 µg/mL + TSH: 66%
  Mutated/wild type (%); 5C9 100 µg/mL + TSH: 79%
  Mutated/wild type (%); 5C9 100 µg/mL only: 174%
  cyclic AMP; 5C9 0.01 µg/mL + TSH (fmol/cell well): 21000
  cyclic AMP; 5C9 0.1 µg/mL + TSH (fmol/cell well): 4420
  cyclic AMP; 5C9 1.0 µg/mL + TSH (fmol/cell well): 1910
  cyclic AMP; 5C9 10 µg/mL + TSH (fmol/cell well): 1250
  cyclic AMP; 5C9 100 µg/mL + TSH (fmol/cell well): 1270
  cyclic AMP; 5C9 100 µg/mL only (fmol/cell well): 523
